# Test results from patent US20250136717A1 (BYONDIS B V, published 2025).
# B1: S313 (antibody)
# heavy: not shown
# light: QVQLVESGGGLVQPGGSLTLSCTASGFTLDHYDIGWFRQAPGKEREGVSCINNSDDDTYYADSVKGRFTIFMNNAKDTVYLQMNSLKPEDTAIYYCAEARGCKRGRYEYDFWGQGTQVTVSSGGGGSPLGLAGGGSDIQMTQSPPSLSASAGDRVTITCRASQGISSRLAWYQQKPEKAPKSLIYAASSLQSGVPSRFSGSGSGTDFTLTISSLQPEDFATYYCQQYNSYPYTFGQGTKLEIKRTVAAPSVFIFPPSDEQLKSGTASVVCLLNNFYPREAKVQWKVDNALQSGNSQESVTEQDSKDSTYSLSSTLTLSKADYEKHKVYACEVTHQGLSSPVTKSFNRGEC
# notes: also called masked tisotumab Qg-BC2T-L9-HC / BC2-Nb-L9-LC
# B2: S314 (antibody)
# heavy: not shown
# light: B1 light
# notes: also called masked P41C tisotumab Qg-BC2T-L9-HC (P41C) / BC2-Nb-L9-LC
# B3: S312 (antibody)
# heavy: not shown
# light: DIQMTQSPPSLSASAGDRVTITCRASQGISSRLAWYQQKPEKAPKSLIYAASSLQSGVPSRFSGSGSGTDFTLTISSLQPEDFATYYCQQYNSYPYTFGQGTKLEIKRTVAAPSVFIFPPSDEQLKSGTASVVCLLNNFYPREAKVQWKVDNALQSGNSQESVTEQDSKDSTYSLSSTLTLSKADYEKHKVYACEVTHQGLSSPVTKSFNRGEC
# notes: also called Anti-TF tisotumab (TF-011) (naked); parent antibody tisotumab
# Key:
# [1] = target: T1, Protein A (Protein A sensor tips, Forte Bio, 18-5012) (UniProt P38507 37-327); test: BLI, Protein A tips
# T1 construct: used to correct for the concentration of the antibody samples
# Source text: (§1) To correct for differences in concentration between the analyte stocks, Protein A binding was estimated for the same samples.
# [2] = target: T2, Human Coagulation Factor III/Tissue Factor Protein, His Tag, Cat. No. TF3-H52H5 (human, UniProt P13726 33-251); test: BLI, TF on Ni-NTA tips
# T2 construct: immobilized on Ni-NTA biosensor tips
# T2 sequence (P13726 33-251 limits assumed): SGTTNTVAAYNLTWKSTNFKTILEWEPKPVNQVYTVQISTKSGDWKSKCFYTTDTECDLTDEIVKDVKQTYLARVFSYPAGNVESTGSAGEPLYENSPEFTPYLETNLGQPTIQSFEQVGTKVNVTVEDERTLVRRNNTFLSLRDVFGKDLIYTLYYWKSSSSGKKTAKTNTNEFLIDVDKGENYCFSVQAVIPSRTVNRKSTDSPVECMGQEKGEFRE
# Source text: as §1
# [3] = target: T2, Human Coagulation Factor III/Tissue …; test: BLI, TF signal over Protein A signal
# Source text: as §1
binder,measurement,setting,value
B1,Protein A binding after 10 s of association,[1],1.73 nm
B2,Protein A binding after 10 s of association,[1],1.37 nm
B3,Protein A binding after 10 s of association,[1],1.75 nm
same,TF binding after 10 s of association,[2],1.12 nm
same,TF/Protein A * 1000,[3],641
